Test [1] has as its target biotinylated-purified IgG Fc fragments (Jackson Labs). Nature of the test: inhibition ELISA: protein in solution incubated with biotinylated IgG Fc fragments, wells coated with SpA, streptavidin-AP.
Test [2] has as its target representative VHIII-encoded IgG2a Moab (moderate affinity clan VHIII, murine 7183-encoded antibody). Nature of the test: inhibition ELISA: SpA form in solution preincubated with the murine 7183-encoded IgG2a, then wells coated with tetmDomD′; human Fc fragments added.

pIC50: −log10 of the molar value.

Consider “SpA domain D (wildtype), monomer (from UniProt P38507 93-153)”, for which the pIC50 in test [1] is 3.70; in test [2], 2.00.
For the substance “Staphylococcal protein A (SpA), native, recombinant rSpA (Repligen) (from UniProt P38507 37-437)”, the pIC50 was 6.40 in test [1] and 5.70 in test [2].
“TetmDomD′ (four-domain concatamer of mutant SpA domain D′, L17D/I31A) (from UniProt P38507 93-153; P38507 93-153; P38507 93-153; P38507 93-153)” showed a pIC50 in test [2] of 2.30.
